Results: paper PMC7728236 (PLoS Pathogens, 2020)

Target: the molecule itself
Experiment: cryo-EM structure

B1: full-length hemagglutinin (HA) of influenza virus A/Hong Kong/1/1968 (H3N2), trypsin-cleaved into HA1/HA2 (natural protein)
chain 1: not shown
chain 2: not shown
notes: copies: 3 + 3
**Q.** For B1, which “stoichiometry N” value is on record?
**A.** 3
